B1: GST-tagged CG9590 (Drosophila FAM114A) [Drosophila] / Vap33 [Drosophila (endogenous in S2 cells)] (parent)
chain 1: MAKNPKKEEDGGNDWAQSDEDDNWDDWGDDDDKFVHVEKEQQPQEKVSSRNDAKGTAENQEKLETPRISAPATASATSSSWGLWGGKLSSVLTTATEGLGTITTQVNQGLNQIIGVPDPEELARINVAEKAEKAAKAPPEENVDDEKESSAAFGLDFVTNLGSKVLNTGLDTLEGIGKKTMTILQDNDPKLMNKRKLLGLEANSPNLSAVLLEAKKEADQMEQSLQQLQLKRQKAQLRFEILFENYCGLVHFEALEILSKESRLKLDTLLDAVSGNARAELQETINEVKELIELEDLDVESEGDYEAEELSERLAATIKDAELGIQFDDIANHWTQSLSWLTSEEATAADLEQAYAKSIHALSEACALEMCKLHKIAELLLVKPHHSTANEVDGVVNLCQQFNGHLQGLSHRFAAVLSGKSETEESKGRVSTFFSEMLSAVQFIEKAYKLFTPILQMGAV
chain 2: MSKSLFDLPLTIEPEHELRFVGPFTRPVVTIMTLRNNSALPLVFKIKTTAPKRYCVRPNIGKIIPFRSTQVEICLQPFVYDQQEKNKHKFMVQSVLAPMDADLSDLNKLWKDLEPEQLMDAKLKCVFEMPTAEANAENTSGGGAVGGGTGAAGGGSAGANTSSASAEALESKPKLSSEDKFKPSNLLETSESLDLLSGEIKALRECNIELRRENLHLKDQITRFRSSPAVKQVNEPYAPVLAEKQIPVFYIAVAIAAAIVSLLLGKFFL

Variants of: B1
Experiment: GST pull-down from S2 cell lysate with mass spectrometry (volcano plot of spectral intensities)
Conditions: three biological replicates, read off a plot

| Variant | screen value [log2] |
| --- | --- |
| chain 1 W24A W27A | 5.2 |

Source: article PMC11441981
